Experiment [1] addresses gp120ΔV2sdCD4 chimeric protein (HIV-1 YU2) (UniProt P35961). Put plainly: SPR (BIACORE 2000), antibody immobilized on CM4 chip, chimeric protein as analyte, 1:1 Langmuir fit. A general note: In SPR one partner is held on a chip, and binding of the other changes the refractive index at the surface.
The target in experiment [2] is gp120ΔV1/V2sdCD4 chimeric protein (HIV-1 YU2) (UniProt P35961). Described as above.
Experiment [3] deals with gp120/sCD4 complex (HIV-1 YU2) (UniProt P35961). Put plainly: SPR, antibody immobilized; KD of gp120/sCD4 against KD of gp120ΔV1/V2sdCD4 and gp120ΔV2sdCD4.
Experiment [4] has the same target. Put plainly: SPR (BIACORE 2000), antibody immobilized on CM4 chip, gp120/sCD4 as analyte, 1:1 Langmuir fit.
Experiment [5] shares this target. As to the kind of experiment: ELISA, gp120/sCD4 captured by D7324, bound antibody as OD 490 nm. (In general: In an ELISA, binding on a coated surface is turned into a signal by an enzyme label.)
Experiment [6] deals with wild type gp120YU2 (HIV-1 YU2) (UniProt P35961). Put plainly: ELISA, gp120 captured by D7324, bound antibody as OD 490 nm.

The term Kd denotes the constant that tells how readily two partners part at equilibrium. Higher therefore signals weaker binding. In general, koff refers to a measure of how fast the partners let go of each other. Low values mean a long-lived complex, high ones a short-lived complex. As usually defined, the kon is the rate constant with which the complex forms. Read a high kon as faster complex formation. On to human CD4i monoclonal antibody 4.8D, for which the Kd in experiment [1] is 0.038 nM; in experiment [2], 0.015 nM; in experiment [4], 1.2 nM. Further, the figures for the dissociation rate constant (koff) in experiment [1], in experiment [2] and in experiment [4] were 0.000197 s⁻¹, 0.000149 s⁻¹ and 0.000212 s⁻¹, respectively. Also, the kon in experiment [1] was found to be 5.2e+06 M⁻¹ s⁻¹; in experiment [2], 9.45e+06 M⁻¹ s⁻¹; in experiment [4] it was 177000 M⁻¹ s⁻¹. In addition, in experiment [3], the fold KD against the chimeric proteins was 100 fold.
On to human CD4i monoclonal antibody E51, for which, in experiment [1], the dissociation constant (Kd) turned out to be 0.013 nM, the koff was found to be 0.000398 s⁻¹ and the on-rate (kon) came to 3.08e+07 M⁻¹ s⁻¹. In experiment [2], the Kd was 0.012 nM, the off-rate constant (koff) was found to be 0.000516 s⁻¹ and the on-rate (kon) worked out at 4.27e+07 M⁻¹ s⁻¹. For the same substance, in experiment [4], the Kd stood at 0.21 nM, the koff was found to be 0.000169 s⁻¹ and the kon came to 796000 M⁻¹ s⁻¹.
What is called EC50 (read off the curve) is the midpoint of the concentration-response curve. Higher therefore signals a less potent agent. In the case of human MAb F105 (antibody), the concentration for a half-maximal effect (EC50 (read off the curve)) in experiment [5] stood at 0.3 µg/mL; in experiment [6], 0.1 µg/mL.
